Reference: patent US20160215027A1

What was measured:
human IgG (human) [1] = assay: human IgG binding to commercial gel support (ligand at 6 mg/mL gel on epoxy-activated crosslinked agarose); elution, A280
human IgG (human) [2] = assay: human IgG binding to commercial gel support (epoxy-activated crosslinked agarose); elution, A280

Row | Human IgG binding amount (human IgG (human) [1]) [mg/mL gel] | Human IgG binding amount (human IgG (human) [2]) [mg/mL gel] | Substance
1 | 50.1 |  | native sequence protein A with the introduced C-terminal cysteine (ligand of rProtein A-Sepharose FF, GE Healthcare Science) (from UniProt P38507 37-327)
2 |  | 45.5 | tetramer of four linked Z domains of protein A with the introduced C-terminal cysteine residue (ligand of MabSelect SuRe, GE Healthcare Science) (designed binder)
